Target: T1, soluble human CD40 extracellular domain (human, UniProt P25942 21-193)
T1 construct: Produced in house; also called hCD40; soluble hCD40 extracellular domain
Assay: SPR, Ab captured from supernatant on protein A, hCD40 ECD analyte
Procedure: The titer data (Table 21) were used to normalize the antibody concentration in each supernatant to 3 μg/ml, and these antibodies were captured out of the supernatants on a protein A CMS Series S sensor chip (GE Healthcare), and tested for binding to two concentrations (5 nM and 50 nM) of soluble hCD40 extracellular domain.
CD40 binding SPR of antibody supernatants: Surface plasmon resonance (SPR) studies were conducted on a BIAcore™ T200 instrument (GE Healthcare, Chicago Ill.). A Series S Protein A sensor chip (GE Healthcare, Chicago Ill.) was equilibrated with SPR running buffer of 10 mM NaPO₄, 130 mM NaCl, 0.05% tween 20, (PBS-T) pH 7.2 at 25° C. The 96 antibody supernatants were normalized to a concentration of 3 μg/ml by diluting with PBS-T using a PerkinElmer JANUS® G3 system (PerkinElmer, Akron, Ohio). After priming the system, the 3 μg/ml antibody samples were captured on the protein A surface for 30 s at 10 μl/min Binding of 50 nM and 500 nM human CD40 extracellular domain (produced in house) was evaluated using association time of 180 s at 30 μl/min, followed by a dissociation time of 180 s at 30 μl/min Regeneration between cycles was accomplished using two 15 s injections of 10 mM glycine pH 1.5. […] Data were analyzed using BIAcore™ T200 evaluation software by fitting to a 1:1 Langmuir model.

T1 sequence (P25942 21-193 limits assumed): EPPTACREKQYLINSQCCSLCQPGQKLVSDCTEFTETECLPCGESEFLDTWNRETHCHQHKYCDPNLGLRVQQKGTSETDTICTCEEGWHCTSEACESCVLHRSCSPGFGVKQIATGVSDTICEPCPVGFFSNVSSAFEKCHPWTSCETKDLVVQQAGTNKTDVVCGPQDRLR

Binder	Kd [nM]
M17 (HC-wt / LC-K45Q) (antibody, human IgG1, kappa, IgG1-P238K; also called HC1/LC2) heavy: not shown light: DIQMTQSPSFLSASVGDRVTITCKASQDVSTAVAWYQQKPGKAPQLLIYSASYRYTGVPSRFSGSGSGTDFTLTISSLQPEDFATYYCQQHYSTPWTFGGGTKVEIKRTVAAPSVFIFPPSDEQLKSGTASVVCLLNNFYPREAKVQWKVDNALQSGNSQESVTEQDSKDSTYSLSSTLTLSKADYEKHKVYACEVTHQGLSSPVTKSFNRGEC	4.1
M11 (HC-R57E / LC-wt) (antibody, human IgG1, kappa, IgG1-P238K; also called HC11/LC1) heavy: not shown light: DIQMTQSPSFLSASVGDRVTITCKASQDVSTAVAWYQQKPGKAPKLLIYSASYRYTGVPSRFSGSGSGTDFTLTISSLQPEDFATYYCQQHYSTPWTFGGGTKVEIKRTVAAPSVFIFPPSDEQLKSGTASVVCLLNNFYPREAKVQWKVDNALQSGNSQESVTEQDSKDSTYSLSSTLTLSKADYEKHKVYACEVTHQGLSSPVTKSFNRGEC	10.2
M24 (HC-R38Q,K63Q,R67Q / LC-K45Q) (antibody, human IgG1, kappa, V domains shown, IgG1-P238K; also called HC8/LC2) VH: QVQLVQSGAEVKKPGSSVKVSCKASGYAFTSYWMHWVQQAPGQGLEWMGQINPTTGRSQYNEQFKTQVTITADKSTSTAYMELSSLRSEDTAVYYCARWGLQPFAYWGQGTLVTVSS VL: DIQMTQSPSFLSASVGDRVTITCKASQDVSTAVAWYQQKPGKAPQLLIYSASYRYTGVPSRFSGSGSGTDFTLTISSLQPEDFATYYCQQHYSTPWTFGGGTKVEIKR	2.9
M8 (HC-R38Q,K63Q,R67Q / LC-wt) (antibody, human IgG1, kappa, IgG1-P238K; also called HC8/LC1) heavy: not shown light: DIQMTQSPSFLSASVGDRVTITCKASQDVSTAVAWYQQKPGKAPKLLIYSASYRYTGVPSRFSGSGSGTDFTLTISSLQPEDFATYYCQQHYSTPWTFGGGTKVEIKRTVAAPSVFIFPPSDEQLKSGTASVVCLLNNFYPREAKVQWKVDNALQSGNSQESVTEQDSKDSTYSLSSTLTLSKADYEKHKVYACEVTHQGLSSPVTKSFNRGEC	3.4
M19 (HC-K12Q,K13Q,K23Q / LC-K45Q) (antibody, human IgG1, kappa, V domains shown, IgG1-P238K; also called HC3/LC2) VH: QVQLVQSGAEVQQPGSSVKVSCQASGYAFTSYWMHWVRQAPGQGLEWMGQINPTTGRSQYNEKFKTRVTITADKSTSTAYMELSSLRSEDTAVYYCARWGLQPFAYWGQGTLVTVSS VL: DIQMTQSPSFLSASVGDRVTITCKASQDVSTAVAWYQQKPGKAPQLLIYSASYRYTGVPSRFSGSGSGTDFTLTISSLQPEDFATYYCQQHYSTPWTFGGGTKVEIKR	3.8
M14 (HC-K74T / LC-wt) (antibody, human IgG1, kappa, IgG1-P238K; also called HC14/LC1) heavy: not shown light: DIQMTQSPSFLSASVGDRVTITCKASQDVSTAVAWYQQKPGKAPKLLIYSASYRYTGVPSRFSGSGSGTDFTLTISSLQPEDFATYYCQQHYSTPWTFGGGTKVEIKRTVAAPSVFIFPPSDEQLKSGTASVVCLLNNFYPREAKVQWKVDNALQSGNSQESVTEQDSKDSTYSLSSTLTLSKADYEKHKVYACEVTHQGLSSPVTKSFNRGEC	4
M5 (HC-K12E,K13Q,K23E / LC-wt) (antibody, human IgG1, kappa, IgG1-P238K; also called HC5/LC1) heavy: not shown light: DIQMTQSPSFLSASVGDRVTITCKASQDVSTAVAWYQQKPGKAPKLLIYSASYRYTGVPSRFSGSGSGTDFTLTISSLQPEDFATYYCQQHYSTPWTFGGGTKVEIKRTVAAPSVFIFPPSDEQLKSGTASVVCLLNNFYPREAKVQWKVDNALQSGNSQESVTEQDSKDSTYSLSSTLTLSKADYEKHKVYACEVTHQGLSSPVTKSFNRGEC	3.8
M25 (HC-K63Q,R67E / LC-K45Q) (antibody, human IgG1, kappa, V domains shown, IgG1-P238K; also called HC9/LC2) VH: QVQLVQSGAEVKKPGSSVKVSCKASGYAFTSYWMHWVRQAPGQGLEWMGQINPTTGRSQYNEQFKTEVTITADKSTSTAYMELSSLRSEDTAVYYCARWGLQPFAYWGQGTLVTVSS VL: DIQMTQSPSFLSASVGDRVTITCKASQDVSTAVAWYQQKPGKAPQLLIYSASYRYTGVPSRFSGSGSGTDFTLTISSLQPEDFATYYCQQHYSTPWTFGGGTKVEIKR	3.1
M9 (HC-K63Q,R67E / LC-wt) (antibody, human IgG1, kappa, IgG1-P238K; also called HC9/LC1) heavy: not shown light: DIQMTQSPSFLSASVGDRVTITCKASQDVSTAVAWYQQKPGKAPKLLIYSASYRYTGVPSRFSGSGSGTDFTLTISSLQPEDFATYYCQQHYSTPWTFGGGTKVEIKRTVAAPSVFIFPPSDEQLKSGTASVVCLLNNFYPREAKVQWKVDNALQSGNSQESVTEQDSKDSTYSLSSTLTLSKADYEKHKVYACEVTHQGLSSPVTKSFNRGEC	3.2
M2 (HC-K12Q,K13Q / LC-wt) (antibody, human IgG1, kappa, IgG1-P238K; also called HC2/LC1) heavy: not shown light: DIQMTQSPSFLSASVGDRVTITCKASQDVSTAVAWYQQKPGKAPKLLIYSASYRYTGVPSRFSGSGSGTDFTLTISSLQPEDFATYYCQQHYSTPWTFGGGTKVEIKRTVAAPSVFIFPPSDEQLKSGTASVVCLLNNFYPREAKVQWKVDNALQSGNSQESVTEQDSKDSTYSLSSTLTLSKADYEKHKVYACEVTHQGLSSPVTKSFNRGEC	3.7
M16 (HC-K63Q / LC-wt) (antibody, human IgG1, kappa, IgG1-P238K; also called HC16/LC1) heavy: not shown light: DIQMTQSPSFLSASVGDRVTITCKASQDVSTAVAWYQQKPGKAPKLLIYSASYRYTGVPSRFSGSGSGTDFTLTISSLQPEDFATYYCQQHYSTPWTFGGGTKVEIKRTVAAPSVFIFPPSDEQLKSGTASVVCLLNNFYPREAKVQWKVDNALQSGNSQESVTEQDSKDSTYSLSSTLTLSKADYEKHKVYACEVTHQGLSSPVTKSFNRGEC	4.1
M15 (HC-R67Q / LC-wt) (antibody, human IgG1, kappa, IgG1-P238K; also called HC15/LC1) heavy: not shown light: DIQMTQSPSFLSASVGDRVTITCKASQDVSTAVAWYQQKPGKAPKLLIYSASYRYTGVPSRFSGSGSGTDFTLTISSLQPEDFATYYCQQHYSTPWTFGGGTKVEIKRTVAAPSVFIFPPSDEQLKSGTASVVCLLNNFYPREAKVQWKVDNALQSGNSQESVTEQDSKDSTYSLSSTLTLSKADYEKHKVYACEVTHQGLSSPVTKSFNRGEC	3.4
M3 (HC-K12Q,K13Q,K23Q / LC-wt) (antibody, human IgG1, kappa, IgG1-P238K; also called HC3/LC1) heavy: not shown light: DIQMTQSPSFLSASVGDRVTITCKASQDVSTAVAWYQQKPGKAPKLLIYSASYRYTGVPSRFSGSGSGTDFTLTISSLQPEDFATYYCQQHYSTPWTFGGGTKVEIKRTVAAPSVFIFPPSDEQLKSGTASVVCLLNNFYPREAKVQWKVDNALQSGNSQESVTEQDSKDSTYSLSSTLTLSKADYEKHKVYACEVTHQGLSSPVTKSFNRGEC	3.7
M18 (HC-K12Q,K13Q / LC-K45Q) (antibody, human IgG1, kappa, IgG1-P238K; also called HC2/LC2) heavy: not shown light: DIQMTQSPSFLSASVGDRVTITCKASQDVSTAVAWYQQKPGKAPQLLIYSASYRYTGVPSRFSGSGSGTDFTLTISSLQPEDFATYYCQQHYSTPWTFGGGTKVEIKRTVAAPSVFIFPPSDEQLKSGTASVVCLLNNFYPREAKVQWKVDNALQSGNSQESVTEQDSKDSTYSLSSTLTLSKADYEKHKVYACEVTHQGLSSPVTKSFNRGEC	3.4
M23 (HC-K23E / LC-K45Q) (antibody, human IgG1, kappa, IgG1-P238K; also called HC7/LC2) heavy: not shown light: DIQMTQSPSFLSASVGDRVTITCKASQDVSTAVAWYQQKPGKAPQLLIYSASYRYTGVPSRFSGSGSGTDFTLTISSLQPEDFATYYCQQHYSTPWTFGGGTKVEIKRTVAAPSVFIFPPSDEQLKSGTASVVCLLNNFYPREAKVQWKVDNALQSGNSQESVTEQDSKDSTYSLSSTLTLSKADYEKHKVYACEVTHQGLSSPVTKSFNRGEC	4.1
M22 (HC-K12V,K19S,K23A / LC-K45Q) (antibody, human IgG1, kappa, V domains shown, IgG1-P238K; also called HC6/LC2) VH: QVQLVQSGAEVVKPGSSVSVSCAASGYAFTSYWMHWVRQAPGQGLEWMGQINPTTGRSQYNEKFKTRVTITADKSTSTAYMELSSLRSEDTAVYYCARWGLQPFAYWGQGTLVTVSS VL: DIQMTQSPSFLSASVGDRVTITCKASQDVSTAVAWYQQKPGKAPQLLIYSASYRYTGVPSRFSGSGSGTDFTLTISSLQPEDFATYYCQQHYSTPWTFGGGTKVEIKR	3.5
M6 (HC-K12V,K19S,K23A / LC-wt) (antibody, human IgG1, kappa, IgG1-P238K; also called HC6/LC1) heavy: not shown light: DIQMTQSPSFLSASVGDRVTITCKASQDVSTAVAWYQQKPGKAPKLLIYSASYRYTGVPSRFSGSGSGTDFTLTISSLQPEDFATYYCQQHYSTPWTFGGGTKVEIKRTVAAPSVFIFPPSDEQLKSGTASVVCLLNNFYPREAKVQWKVDNALQSGNSQESVTEQDSKDSTYSLSSTLTLSKADYEKHKVYACEVTHQGLSSPVTKSFNRGEC	3.8
M12 (HC-R57E,K74Q / LC-wt) (antibody, human IgG1, kappa, IgG1-P238K; also called HC12/LC1) heavy: not shown light: DIQMTQSPSFLSASVGDRVTITCKASQDVSTAVAWYQQKPGKAPKLLIYSASYRYTGVPSRFSGSGSGTDFTLTISSLQPEDFATYYCQQHYSTPWTFGGGTKVEIKRTVAAPSVFIFPPSDEQLKSGTASVVCLLNNFYPREAKVQWKVDNALQSGNSQESVTEQDSKDSTYSLSSTLTLSKADYEKHKVYACEVTHQGLSSPVTKSFNRGEC	14
M7 (HC-K23E / LC-wt) (antibody, human IgG1, kappa, IgG1-P238K; also called HC7/LC1) heavy: not shown light: DIQMTQSPSFLSASVGDRVTITCKASQDVSTAVAWYQQKPGKAPKLLIYSASYRYTGVPSRFSGSGSGTDFTLTISSLQPEDFATYYCQQHYSTPWTFGGGTKVEIKRTVAAPSVFIFPPSDEQLKSGTASVVCLLNNFYPREAKVQWKVDNALQSGNSQESVTEQDSKDSTYSLSSTLTLSKADYEKHKVYACEVTHQGLSSPVTKSFNRGEC	4.5
M20 (HC-K12E / LC-K45Q) (antibody, human IgG1, kappa, IgG1-P238K; also called HC4/LC2) heavy: not shown light: DIQMTQSPSFLSASVGDRVTITCKASQDVSTAVAWYQQKPGKAPQLLIYSASYRYTGVPSRFSGSGSGTDFTLTISSLQPEDFATYYCQQHYSTPWTFGGGTKVEIKRTVAAPSVFIFPPSDEQLKSGTASVVCLLNNFYPREAKVQWKVDNALQSGNSQESVTEQDSKDSTYSLSSTLTLSKADYEKHKVYACEVTHQGLSSPVTKSFNRGEC	3.3
M21 (HC-K12E,K13Q,K23E / LC-K45Q) (antibody, human IgG1, kappa, IgG1-P238K; also called HC5/LC2) heavy: not shown light: DIQMTQSPSFLSASVGDRVTITCKASQDVSTAVAWYQQKPGKAPQLLIYSASYRYTGVPSRFSGSGSGTDFTLTISSLQPEDFATYYCQQHYSTPWTFGGGTKVEIKRTVAAPSVFIFPPSDEQLKSGTASVVCLLNNFYPREAKVQWKVDNALQSGNSQESVTEQDSKDSTYSLSSTLTLSKADYEKHKVYACEVTHQGLSSPVTKSFNRGEC	3.7
